Values belong to the binder of their own block, whether it stands above or below them.
Assays:
Test in all cases: cell-based or functional assay
ADAMTS4 = molecular target: T1, ADAMTS4 (human, UniProt O75173 213-685, limits assumed)
T1 sequence (looked up): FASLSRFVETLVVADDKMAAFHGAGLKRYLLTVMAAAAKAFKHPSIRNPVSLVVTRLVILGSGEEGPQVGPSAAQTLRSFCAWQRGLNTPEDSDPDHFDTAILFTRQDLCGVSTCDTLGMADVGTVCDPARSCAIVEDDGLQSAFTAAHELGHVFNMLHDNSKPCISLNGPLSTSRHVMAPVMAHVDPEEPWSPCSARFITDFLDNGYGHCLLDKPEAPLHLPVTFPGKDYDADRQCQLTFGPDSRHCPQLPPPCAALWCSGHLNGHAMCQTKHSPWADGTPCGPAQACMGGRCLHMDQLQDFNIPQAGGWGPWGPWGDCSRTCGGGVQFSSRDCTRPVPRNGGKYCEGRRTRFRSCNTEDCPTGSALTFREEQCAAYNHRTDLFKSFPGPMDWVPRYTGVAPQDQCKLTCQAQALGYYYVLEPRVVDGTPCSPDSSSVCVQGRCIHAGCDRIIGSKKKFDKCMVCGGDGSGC

ADAMTS5 = molecular target: T2, ADAMTS5 (human, UniProt Q9UNA0 262-622, limits assumed)
T2 sequence (looked up): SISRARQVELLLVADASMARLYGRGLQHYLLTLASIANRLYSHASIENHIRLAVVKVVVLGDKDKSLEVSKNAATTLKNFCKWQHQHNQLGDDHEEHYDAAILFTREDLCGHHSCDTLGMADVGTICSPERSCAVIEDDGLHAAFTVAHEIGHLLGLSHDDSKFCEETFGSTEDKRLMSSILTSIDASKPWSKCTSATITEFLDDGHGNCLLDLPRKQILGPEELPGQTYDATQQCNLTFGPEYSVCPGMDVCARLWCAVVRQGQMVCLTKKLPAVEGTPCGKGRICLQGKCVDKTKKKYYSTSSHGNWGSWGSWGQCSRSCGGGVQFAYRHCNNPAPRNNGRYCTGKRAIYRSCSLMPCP

MMP13 = MMP13 (human, UniProt P45452 104-471, limits assumed)

Protease Inhibition (% of WT) (ADAMTS4): 68 % of WT
Protease Inhibition (% of WT) (ADAMTS5): 108 % of WT
Protease Inhibition (% of WT) (MMP13): 156 % of WT
B1: Variant A2M, bait region SEQ ID NO 88 (other)
chain: SVSGKPQYMVLVPSLLHTETTEKGCVLLSYLNETVTVSASLESVRGNRSLFTDLEAENDVLHCVAFAVPKSSSNEEVMFLTVQVKGPTQEFKKRTTVMVKNEDSLVFVQTDKSIYKPGQTVKFRVVSMDENFHPLNELIPLVYIQDPKGNRIAQWQSFQLEGGLKQFSFPLSSEPFQGSYKVVVQKKSGGRTEHPFTVEEFVLPKFEVQVTVPKIITILEEEMNVSVCGLYTYGKPVPGHVTVSICRKYSDASDCHGEDSQAFCEKFSGQLNSHGCFYQQVKTKVFQLKRKEYEMKLHTEAQIQEEGTVVELTGRQSSEITRTITKLSFVKVDSHFRQGIPFFGQVRLVDGKGVPIPNKVIFIRGNEANYYSNATTDEHGLVQFSINTTNVMGTSLTVRVNYKDRSPCYGYQWVSEEHEEAHHTAYLVFSPSKSFVHLEPMSHELPCGHTQTVQAHYILNGGTLLGLKKLSFYYLIMAKGGIVRTGTHGLLVKQEDMKGHFSISIPVKSDIAPVARLLIYAVLPTGDVIGDSAKYDVENCLANKVDLSFSPSQSLPASHAHLRVTAAPQSVCALRAVDQSVLLMKPDAELSASSVYNLLPEKDLTGFPGPLNDQDDEDCINRHNVYINGITYTPVSSTNEKDMYSFLEDMGLKAFTNSKIRKPKMCPQLEQYEMHGPEGLRVGIPENFFGVFYESDVMGRGHARLVHVEEPHTKLLRKYFPETWIWDLVVVNSAGVAEVGVTVPDTITEWKAGAFCLSEDAGLGISSTASLRAFQPFFVELTMPYSVIRGEAFTLKATVLNYLPKCIRVSVQLEASPAFLAVPVEKEQAPHCICANGRQTVSWAVTPKSLGNVNFTVSAEALESQELCGTEVPSVPEHGRKDTVIKPLLVEPEGLEKETTFNSLLCPSGGEVSEELSLKLPPNVVEESARASVSVLGDILGSAMQNTQNLLQMPYGCGEQNMVLFAPNIYVLDYLNETQQLTPEIKSKAIGYLNTGYQRQLNYKHYDGSYSTFGERYGRNQGNTWLTAFVLKTFAQARAYIFIDEAHITQALIWLSQRQKDNGCFRSSGSLLNNAIKGGVEDEVTLSAYITIALLEIPLTVTHPVVRNALFCLESAWKTAQEGDHGSHVYTKALLAYAFALAGNQDKRKEVLKSLNEEAVKKDNSVHWERPQKPKAPVGHFYEPQAPSAEVEMTSYVLLAYLTAQPAPTSEDLTSATNIVKWITKQQNAQGGFSSTQDTVVALHALSKYGAATFTRTGKAAQVTIQSSGTFSSKFQVDNNNRLLLQQVSLPELPGEYSMKVTGEGCVYLQTSLKYNILPEKEEFPFALGVQTLPQTCDEPKAHTSFQISLSVSYTGSRSASNMAIVDVKMVSGFIPLKPTVKMLERSNHVSRTEVSSNHVLIYLDKVSNQTLSLFFTVLQDVPVRDLKPAIVKVYDYYETDEFAIAEYNAPCSKDLGNADYKDDDDKGASHHHHHH

Protease Inhibition (% of WT) (ADAMTS4): 78 % of WT
Protease Inhibition (% of WT) (ADAMTS5): 174 % of WT
Protease Inhibition (% of WT) (MMP13): 170 % of WT
B2: Variant A2M, bait region SEQ ID NO 85 (other)
chain: SVSGKPQYMVLVPSLLHTETTEKGCVLLSYLNETVTVSASLESVRGNRSLFTDLEAENDVLHCVAFAVPKSSSNEEVMFLTVQVKGPTQEFKKRTTVMVKNEDSLVFVQTDKSIYKPGQTVKFRVVSMDENFHPLNELIPLVYIQDPKGNRIAQWQSFQLEGGLKQFSFPLSSEPFQGSYKVVVQKKSGGRTEHPFTVEEFVLPKFEVQVTVPKIITILEEEMNVSVCGLYTYGKPVPGHVTVSICRKYSDASDCHGEDSQAFCEKFSGQLNSHGCFYQQVKTKVFQLKRKEYEMKLHTEAQIQEEGTVVELTGRQSSEITRTITKLSFVKVDSHFRQGIPFFGQVRLVDGKGVPIPNKVIFIRGNEANYYSNATTDEHGLVQFSINTTNVMGTSLTVRVNYKDRSPCYGYQWVSEEHEEAHHTAYLVFSPSKSFVHLEPMSHELPCGHTQTVQAHYILNGGTLLGLKKLSFYYLIMAKGGIVRTGTHGLLVKQEDMKGHFSISIPVKSDIAPVARLLIYAVLPTGDVIGDSAKYDVENCLANKVDLSFSPSQSLPASHAHLRVTAAPQSVCALRAVDQSVLLMKPDAELSASSVYNLLPEKDLTGFPGPLNDQDDEDCINRHNVYINGITYTPVSSTNEKDMYSFLEDMGLKAFTNSKIRKPKMCPQLEQYEMHGPEGLRVGIPENFFGVSELEGRGSKEEEGLGSKLRKYFPETWIWDLVVVNSAGVAEVGVTVPDTITEWKAGAFCLSEDAGLGISSTASLRAFQPFFVELTMPYSVIRGEAFTLKATVLNYLPKCIRVSVQLEASPAFLAVPVEKEQAPHCICANGRQTVSWAVTPKSLGNVNFTVSAEALESQELCGTEVPSVPEHGRKDTVIKPLLVEPEGLEKETTFNSLLCPSGGEVSEELSLKLPPNVVEESARASVSVLGDILGSAMQNTQNLLQMPYGCGEQNMVLFAPNIYVLDYLNETQQLTPEIKSKAIGYLNTGYQRQLNYKHYDGSYSTFGERYGRNQGNTWLTAFVLKTFAQARAYIFIDEAHITQALIWLSQRQKDNGCFRSSGSLLNNAIKGGVEDEVTLSAYITIALLEIPLTVTHPVVRNALFCLESAWKTAQEGDHGSHVYTKALLAYAFALAGNQDKRKEVLKSLNEEAVKKDNSVHWERPQKPKAPVGHFYEPQAPSAEVEMTSYVLLAYLTAQPAPTSEDLTSATNIVKWITKQQNAQGGFSSTQDTVVALHALSKYGAATFTRTGKAAQVTIQSSGTFSSKFQVDNNNRLLLQQVSLPELPGEYSMKVTGEGCVYLQTSLKYNILPEKEEFPFALGVQTLPQTCDEPKAHTSFQISLSVSYTGSRSASNMAIVDVKMVSGFIPLKPTVKMLERSNHVSRTEVSSNHVLIYLDKVSNQTLSLFFTVLQDVPVRDLKPAIVKVYDYYETDEFAIAEYNAPCSKDLGNADYKDDDDKGASHHHHHH

Protease Inhibition (% of WT) (ADAMTS4): 91 % of WT
Protease Inhibition (% of WT) (ADAMTS5): 74 % of WT
Protease Inhibition (% of WT) (MMP13): 120 % of WT
B3: Variant A2M, bait region SEQ ID NO 86 (other)
chain: SVSGKPQYMVLVPSLLHTETTEKGCVLLSYLNETVTVSASLESVRGNRSLFTDLEAENDVLHCVAFAVPKSSSNEEVMFLTVQVKGPTQEFKKRTTVMVKNEDSLVFVQTDKSIYKPGQTVKFRVVSMDENFHPLNELIPLVYIQDPKGNRIAQWQSFQLEGGLKQFSFPLSSEPFQGSYKVVVQKKSGGRTEHPFTVEEFVLPKFEVQVTVPKIITILEEEMNVSVCGLYTYGKPVPGHVTVSICRKYSDASDCHGEDSQAFCEKFSGQLNSHGCFYQQVKTKVFQLKRKEYEMKLHTEAQIQEEGTVVELTGRQSSEITRTITKLSFVKVDSHFRQGIPFFGQVRLVDGKGVPIPNKVIFIRGNEANYYSNATTDEHGLVQFSINTTNVMGTSLTVRVNYKDRSPCYGYQWVSEEHEEAHHTAYLVFSPSKSFVHLEPMSHELPCGHTQTVQAHYILNGGTLLGLKKLSFYYLIMAKGGIVRTGTHGLLVKQEDMKGHFSISIPVKSDIAPVARLLIYAVLPTGDVIGDSAKYDVENCLANKVDLSFSPSQSLPASHAHLRVTAAPQSVCALRAVDQSVLLMKPDAELSASSVYNLLPEKDLTGFPGPLNDQDDEDCINRHNVYINGITYTPVSSTNEKDMYSFLEDMGLKAFTNSKIRKPKMCPQLEQYEMHGPEGLRVGSELEGRGSKEEEGLGSIPENFFGVKLRKYFPETWIWDLVVVNSAGVAEVGVTVPDTITEWKAGAFCLSEDAGLGISSTASLRAFQPFFVELTMPYSVIRGEAFTLKATVLNYLPKCIRVSVQLEASPAFLAVPVEKEQAPHCICANGRQTVSWAVTPKSLGNVNFTVSAEALESQELCGTEVPSVPEHGRKDTVIKPLLVEPEGLEKETTFNSLLCPSGGEVSEELSLKLPPNVVEESARASVSVLGDILGSAMQNTQNLLQMPYGCGEQNMVLFAPNIYVLDYLNETQQLTPEIKSKAIGYLNTGYQRQLNYKHYDGSYSTFGERYGRNQGNTWLTAFVLKTFAQARAYIFIDEAHITQALIWLSQRQKDNGCFRSSGSLLNNAIKGGVEDEVTLSAYITIALLEIPLTVTHPVVRNALFCLESAWKTAQEGDHGSHVYTKALLAYAFALAGNQDKRKEVLKSLNEEAVKKDNSVHWERPQKPKAPVGHFYEPQAPSAEVEMTSYVLLAYLTAQPAPTSEDLTSATNIVKWITKQQNAQGGFSSTQDTVVALHALSKYGAATFTRTGKAAQVTIQSSGTFSSKFQVDNNNRLLLQQVSLPELPGEYSMKVTGEGCVYLQTSLKYNILPEKEEFPFALGVQTLPQTCDEPKAHTSFQISLSVSYTGSRSASNMAIVDVKMVSGFIPLKPTVKMLERSNHVSRTEVSSNHVLIYLDKVSNQTLSLFFTVLQDVPVRDLKPAIVKVYDYYETDEFAIAEYNAPCSKDLGNADYKDDDDKGASHHHHHH

Reference: patent publication US20230250154A1 (CYTONICS, published 2023)
